Experimental data as given in FireProtDB (doi:10.1021/acs.biochem.7b01284).
Values joined by “and” are separate entries in the source; they are usually repeats but may differ in a detail not shown here. Equal entries are not always repeated.

B1: Geranylgeranylglyceryl phosphate synthase, O26652 (parent)
chain: MKVEDYFHDILRERKIHLTLIDPEEQTPEEAVEIARAAIRGGTDGIMLGGSTTDSSELDNTARALRENIDVPIILFPGNTTGVSRYADAIFFMSLLNSTNPYWIIGAQALGAATVKKMGIEALPMGYLVVEPGGTVGWVGDTKPVPRNKPDIAAAYAMAAEFLGMRLFYLEAGSGAPEHVPEEMIALVKRCTDQILIVGGGIRSGEDAARVAGAGADVVVTGTVVENSDNVEDKIREIVEGMGSV

Variants of: B1
Conditions: Methanothermobacter thermautotrophicus (strain ATCC 29096 / DSM 1053 / JCM 10044 / NBRC 100330 / Delta H); pH 7.5; Thermal; DSC; potassium phosphate buffer; reversible: no; structure 4MM1; whole UniProt chain shown

Variant	Tm [°C]	unfolding enthalpy (calorimetric)
MKVEDYFHDILRERKIHLTLIDPEEQTPEEAVEIARAAIRGGTDGIMLGGSTTDSSELDNTARALRENIDVPIILFPGNTTGVSRYADAIFFMSLLNSTNPYWIIGAQALGAATVKKMGIEALPMGYLVVEPGGTVGWVGDTKPVPRNKPDIAAAYAMEAEFLGMRLFYLEAGSGAPEHVPEEMIALVKRCTDQILIVGGGIRSGEDAARVAGAGADVVVTGTVVENSDNVEDKIREIVEGMGSV [A159E]	64	173 kcal/mol
MKVEDYFHDILRERKIHLTLIDPEEQTPEEAVEIARAAIRGGTDGIMLGGSTTDSSELDNTARALRENIDVPIILFPGNTTGVSRYADAIFFMSLLNSTNPYWIIGAQALGAATVKKMGIEALPMGYLVVEPGGTVGWVGDTAPVPRNKPDIAAAYAMAAEFLGMRLFYLEAGSGAPEHVPEEMIALVKRCTDQILIVGGGIRSGEDAARVAGAGADVVVTGTVVENSDNVEDKIREIVEGMGSV [K143A]		100 kcal/mol
MKVEDYFHDILRERKIHLTLIDPEEQTPEEAVEIARAAIRGGTDGIMLGGSTTDSSELDNTARALRENIDVPIILFPGNTTGVSRYADAIFFMSLLNSTNPYWIIGAQALGAATVKKMGIEALPMGYLVVEPGGTVGAVGDTKPVPRNKPDIAAAYAMAAEFLGMRLFYLEAGSGAPEHVPEEMIALVKRCTDQILIVGGGIRSGEDAARVAGAGADVVVTGTVVENSDNVEDKIREIVEGMGSV [W138A]		106 kcal/mol and 78.2 kcal/mol
MKVEDYFHDILRERKIHLTLIDPEEQTPEEAVEIARAAIRGGTDGIMLGGSTTRSSELDNTARALRENIDVPIILFPGNTTGVSRYADAIFFMSLLNSTNPYWIIGAQALGAATVKKMGIEALPMGYLVVEPGGTVGWVGDTKPVPRNKPDIAAAYAMAAEFLGMRLFYLEAGSGAPEHVPEEMIALVKRCTDQILIVGGGIRSGEDAARVAGAGADVVVTGTVVENSDNVEDKIREIVEGMGSV [D54R]		187 kcal/mol and 88 kcal/mol
MKVEDYFHDILRERKIHLTLIDPEEQTPEEAVEIARAAIRGGTDGIMLGGSTTDSSELDNTARALRENIDVPIILFPGNTTGVSRYADAIFFMSLLNSTNPAWIIGAQALGAATVKKMGIEALPMGYLVVEPGGTVGWVGDTKPVPRNKPDIAAAYAMAAEFLGMRLFYLEAGSGAPEHVPEEMIALVKRCTDQILIVGGGIRSGEDAARVAGAGADVVVTGTVVENSDNVEDKIREIVEGMGSV [Y102A]		104 kcal/mol and 108 kcal/mol

Same assay, conditions: Methanothermobacter thermautotrophicus (strain ATCC 29096 / DSM 1053 / JCM 10044 / NBRC 100330 / Delta H); pH 7.5; Thermal; DSF; potassium phosphate buffer; reversible: no; structure 4MM1; whole UniProt chain shown

Variant	Tm [°C]
MKVEDYFHDILRERKIHLTLIDPEEQTPEEAVEIARAAIRGGTDGIMLGGSTTDSSELDNTARALRENIDVPIILFPGNTTGVSRYADAIFFMSLLNSTNPYWIIGAQALGAATVKKMGIEALPMGYLVVEPGGTVGWVGDTAPVPRNKPDIAAAYAMAAEFLGMRLFYLEAGSGAPEHVPEEMIALVKRCTDQILIVGGGIRSGEDAARVAGAGADVVVTGTVVENSDNVEDKIREIVEGMGSV [K143A]	66
MKVEDYFHDILRERKIHLTLIDPEEQTPEEAVEIARAAIRGGTDGIMLGGSTTDSSELDNTARALRENIDVPIILFPGNTTGVSEYADAIFFMSLLNSTNPYWIIGAQALGAATVKKMGIEALPMGYLVVEPGGTVGWVGDTKPVPRNKPDIAAAYAMAAEFLGMRLFYLEAGSGAPEHVPEEMIALVKRCTDQILIVGGGIRSGEDAARVAGAGADVVVTGTVVENSDNVEDKIREIVEGMGSV [R85E]	53.9
MKVEDYFHDILRERKIHLTLIDPEEQTPEEAVEIARAAIRGGTDGIMLGGSTTRSSELDNTARALRENIDVPIILFPGNTTGVSRYADAIFFMSLLNSTNPYWIIGAQALGAATVKKMGIEALPMGYLVVEPGGTVGWVGDTKPVPRNKPDIAAAYAMAAEFLGMRLFYLEAGSGAPEHVPEEMIALVKRCTDQILIVGGGIRSGEDAARVAGAGADVVVTGTVVENSDNVEDKIREIVEGMGSV [D54R]	52.2
